The values below come from the supplement of paper PMC9170038.

The test system of the data set is MS2 coat protein. Put plainly: apparent KD of MS2 coat protein; designed switch direction (-1 OFF switch, 1 ON switch): 1; higher = weaker reporter binding. Summed up: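 Stalled E. coli RNA polymerase transcribed designed RNA switches on Illumina chips, which were then titrated with SNAP-549-labelled MS2 coat protein, doubling from 0.7 or 1.5 nM to 3 µM. Steps lasted from 0.8–1.5 h at the lowest concentration to 10–20 min at the highest. The apparent KD is each design's median over clusters of curve-fitted normalised fluorescence.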

Where [1] appears, read: input ligand: microRNA oligo, concentration not stated.
Setting [2] is: Eterna round: R95, input ligand: FMN 200 uM.
Setting [3] is: Eterna round: R95, input ligand: microRNA oligo, concentration not stated.
Where [4] appears, read: Eterna round: R95, input ligand: none.

Regarding “UGUUGUUAAUUAGGAUAUGGUCACAUGAGGAUCACCCAUGUAAUGUCGAUGCUAUGUGGAUUUGAUCAGAAGGAAUGGCUAACA [SameState NG2 #97] (Eterna round: R96, puzzle: Same State NG 2)”, the “apparent KD of MS2 coat protein” value by setting is: (input ligand: FMN 200 uM) 105 nM; under setting [1], 242 nM; (input ligand: none) 341 nM.
For “UGAAUAUUUACAGGAUAUGAGUUGUAUAGUGGGUCAGAAGGGUGGGUGUUUUGCACGGUGUGUUACAUGAGGAUCACCCAUGUU [SameState NG1 #27] (Eterna round: R96, puzzle: Same State NG 1)”, the “apparent KD of MS2 coat protein” value came to 129 nM (input ligand: FMN 200 uM), 74.5 nM under setting [1] and 146 nM (input ligand: none).
For “AAACGAAACACGGCCACAUGAGGAUCACCCAUGUCGAGUUCACAGGAUAUACCUACGUCCUCGUGGUAGAAGGGUGAGGCUGUG [Rienat] (Eterna round: R96, puzzle: Same State NG 3)”, in that order: 750 nM, 39.5 nM and 215 nM.
For “GGAGCCGGCACUGAGGAUAUUCAUAUUUAAACAUGAGGAUCACCCAUGUAGGCCAGAAGGCCUUGGGAGAAGGCAGGUCGGCUCU [salish99_ss2_r3_077] (puzzle: Same State 2)”, the “apparent KD of MS2 coat protein” value turned out to be 20.8 nM under setting [2], 247 nM under setting [3] and 434 nM under setting [4].
As to “AGAUCAUGACGAGGAUAUGGUACAUGAGGAUCACCCAUGUAUGUACCACGACGCGUACGUCGAAUCCAGAAGGCGUCAUGAUCA [Mat - Same State NG 2 - JL mod - D18] (Eterna round: R96, puzzle: Same State NG 2)”, the “apparent KD of MS2 coat protein” value runs as follows: (input ligand: FMN 200 uM) 21.6 nM; under setting [1], 92.8 nM; (input ligand: none) 150 nM.
As to “UUAUAACAUGAGGAUCACCCAUGUCAUCUAAGUCGAGGAUAUGGGCAAAUAAUAUAAGAACCAGAAGGCGAAUAUU [Mat - Same State 1 - Mod of UCT - D46] (puzzle: Same State 1)”, the “apparent KD of MS2 coat protein” value by setting is: under setting [2], 106 nM; under setting [3], 147 nM; under setting [4], 232 nM.
For the sequence “GGAAAGAGGUUAGGAUAUGCAUGGCUGGGACAUGAGGAUCACCCAUGUAAUAGAAGAAAUCUACAGUAGAAGGGACAAGGAAGG [AK SSNG2-V2-8] (Eterna round: R96, puzzle: Same State NG 2)”, the “apparent KD of MS2 coat protein” value (input ligand: FMN 200 uM) came to 759 nM, the “apparent KD of MS2 coat protein” value under setting [1] was 262 nM and the “apparent KD of MS2 coat protein” value (input ligand: none) was found to be 224 nM.
As for “UGGAUCUAGGCUUGCCUGGGUCCAUGCUGACAUGAGGAUCACCCAUGUGCAUCCUACAAGCUUUUUGCUUGUCGGCU (puzzle: Sensor for hsa-mir-208a)”, the “apparent KD of MS2 coat protein” value is, setting by setting: under setting [2], 178 nM; under setting [3], 194 nM; under setting [4], 221 nM.
Turning to “GUGCGAGUGCCACAGGAUAUACGUGGAUCGACAUGAGGAUCACCCAUGUAUAUCCUAAUAAUUGCGUAGAAGGGUGGUCAGUCGG [Inzage] (Eterna round: R96, puzzle: Same State 2)”, the “apparent KD of MS2 coat protein” value reads like this: (input ligand: FMN 200 uM) 164 nM; under setting [1], 313 nM; (input ligand: none) 478 nM.
In the case of “UAGACAAGCUUUAUGUUCUUCCUAUUCCAACAUGAGGAUCACCCAUGUAGUCUGUCGAUUGUGAGUGUAGUUGAGAU [JR_SHM208A_Sub026] (puzzle: Sensor for hsa-mir-208a)”, the “apparent KD of MS2 coat protein” value by setting is: under setting [2], 57.8 nM; under setting [3], 52 nM; under setting [4], 61.9 nM.
As for “GGUAGGUUACUACCAACACAUGAGGAUCACCCAUGUUAGUGGGAGGAUAUGGUACCUAUUUGGUACCAGAAGGCCUUGUUAAUU [Fiskers NG3ss - 14] (Eterna round: R96, puzzle: Same State NG 3)”, the “apparent KD of MS2 coat protein” value is, setting by setting: (input ligand: FMN 200 uM) 43.7 nM; under setting [1], 62.8 nM; (input ligand: none) 87.6 nM.
On to “GCCCGACUCACAGGAUAUGUACCGCCCGAAACAACAGAAGGGUGAGAUCCGGCAUGCACUGACAUGAGGAUCACCCAUGUCCUU [Gebege] (Eterna round: R96, puzzle: Same State NG 1)”, for which the “apparent KD of MS2 coat protein” value runs as follows: (input ligand: FMN 200 uM) 520 nM; under setting [1], 311 nM; (input ligand: none) 765 nM.
Regarding “GGUGGGUUACUACCCACACAUGAGGAUCACCCAUGUUUUGGGAAGGAUAUGGUACCUAUUUGGUACCAGAAGGUCCUGUUGGUG [SS-NG3-LRO14] (Eterna round: R96, puzzle: Same State NG 3)”, the “apparent KD of MS2 coat protein” value runs as follows: (input ligand: FMN 200 uM) 702 nM; under setting [1], 445 nM; (input ligand: none) 1020 nM.
For “CUGAGCAGUCAAGGAUAUCACGUCGAUUAGACGUGAGAAGGUGAUCAUUACAUGAGGAUCACCCAUGUGUUACAUGGAGCUCAG [Brourd's SSNG1/1-A2 mod 5] (Eterna round: R96, puzzle: Same State NG 1)”, in that order: 413 nM, 49.1 nM and 358 nM.
For the sequence “AAUUUAAUACAUGAGGAUCACCCAUGUAAAUUAAUUAAGAUCAAGGAUAUCAGCUCGAUUAGAGCUGAGAAGGUGAUCACAUGU [SSNG3/19-A2] (Eterna round: R96, puzzle: Same State NG 3)”, under setting [1], the “apparent KD of MS2 coat protein” value worked out at 307 nM.
Take “UGGAUCUAGGCUUGCCUGGGUCCUUCAAGACAUGAGGAUCACCCAUGUGUUUUUUUUUUGCUUUUUGUUUGUCUUGA [JL A Humble Attempt mod 2] (puzzle: Sensor for hsa-mir-208a)”: the “apparent KD of MS2 coat protein” value under setting [2] was 50.8 nM, the “apparent KD of MS2 coat protein” value under setting [3] came out at 15 nM and the “apparent KD of MS2 coat protein” value under setting [4] amounted to 23.1 nM.
In the case of “CCCUGAGGCAGCCUACAGGGACAUGAGGAUCACCCAUGUACACAGGAUAUCGAGGGCUCCGCCCUCGAGAAGGGUGAUCAGACU [Redied] (Eterna round: R96, puzzle: Same State NG 3)”, the “apparent KD of MS2 coat protein” value by setting is: (input ligand: FMN 200 uM) 321 nM; under setting [1], 161 nM; (input ligand: none) 97.4 nM.
Turning to “UGUACCUUCACAGGAUAUCAUGCGAAAAUUGCGUGAGAAGGGUGAAUACUGUCUUUCUAAGAGCACAUGAGGAUCACCCAUGUA [SameState NG1 #59] (Eterna round: R96, puzzle: Same State NG 1)”, the “apparent KD of MS2 coat protein” value (input ligand: FMN 200 uM) was determined as 195 nM, the “apparent KD of MS2 coat protein” value under setting [1] was 206 nM and the “apparent KD of MS2 coat protein” value (input ligand: none) was found to be 278 nM.
The matching figures for “AAAGUGCCGACGAAGGAUAUAGCGGGUGAGACAUGAGGAUCACCCAUGUAUGCAGAACUCAUCCUCUAGAAGGUUGAGACGGCUA [Bionlateat] (Eterna round: R96, puzzle: Same State 2)”: 151 nM, 31.1 nM and 95.9 nM.
Regarding “GUAAAACAUGAGGAUCACCCAUGUAAUAUAAUGGGAGGAUAUCUGAUUUAAUUUAAUUUAAGAGAAGGCCUAAAUG [Mat - Same State 1 - Mod of Eli - D57] (puzzle: Same State 1)”, the “apparent KD of MS2 coat protein” value reads like this: under setting [2], 39.6 nM; under setting [3], 268 nM; under setting [4], 372 nM.
In the case of “GACUGCGUUAUGAAGGAUAUCCGCGUCUGGACAUGAGGAUCACCCAUGUAUACUUGGAUCGUGCAGGAGAAGGUCAAGGGUGAUU [JR_SS002_Sub1210] (Eterna round: R96, puzzle: Same State 2)”, the “apparent KD of MS2 coat protein” value is 507 nM (input ligand: FMN 200 uM), 163 nM under setting [1] and 243 nM (input ligand: none).
In the case of “CUCAACAACACAGGAUAUCCAGGGAAAAGCCCUGGAGAAGGGUGACCAACAUGAGGAUCACCCAUGUGACGGCUAAACCGUCUG [Inususisre] (Eterna round: R96, puzzle: Same State NG 1)”, the “apparent KD of MS2 coat protein” value came to 319 nM (input ligand: FMN 200 uM), 509 nM under setting [1] and 60.7 nM (input ligand: none).
Turning to “AUAAAACAUGAGGAUCACCCAUGUCAACAAAGUCGAGGAUAUGGGCAAAGAAAAUAAGAACCAGAAGGCGAAUAAU [salish99_ss1_r3_056] (Eterna round: R96, puzzle: Same State 1)”, the “apparent KD of MS2 coat protein” value under setting [1] was 245 nM.
As for “CGGCGCUGUCGAGAGGAUAUGCGGUGACGGACAUGAGGAUCACCCAUGUUAGCGAUAGCGUUACGGUAGAAGGCUCUACAGUCGC [Soteed Omei mod 10] (puzzle: Same State 2)”, the “apparent KD of MS2 coat protein” value under setting [3] was 49.2 nM.
Consider “AAUUAAGAUCAAGGAUAUCACGUCGAAUAGACGUGAGAAGGUGAUCAUAACAUGAGGAUCACCCAUGUAUUACAUGAAUUAAUU [SSNG1/2-B1] (Eterna round: R96, puzzle: Same State NG 1)”, for which the “apparent KD of MS2 coat protein” value is, setting by setting: (input ligand: FMN 200 uM) 71.3 nM; under setting [1], 177 nM; (input ligand: none) 289 nM.
The matching figures for “AGAUCAUGACGAGGAUAUGCCACAUGAGGAUCACCCAUGUAUGUGGUAGGACGCGUACGUCCAAAGCAGAAGGCGUCGUGAUCA [Mat - Same State NG 2 - JL mod - D36] (Eterna round: R96, puzzle: Same State NG 2)”: 21.5 nM, 37.6 nM and 47.9 nM.
Take “GGUCCAGCCUGAGCUGGACAAAAGCAUGUACAUGAGGAUCACCCAUGUCAUGUACAAGCUUUUUGCUCGUCUUAAAG [Mat - hsa-mir-208a - 85] (puzzle: Sensor for hsa-mir-208a)”: the “apparent KD of MS2 coat protein” value turned out to be 195 nM under setting [2], 18.1 nM under setting [3] and 367 nM under setting [4].
Take “CAGUAUCGCGGAGGAUAUGGGCUGAGACCGGAGCAACUCUGGUCAACAUGAGGAUCACCCAUGUCCCAGAAGGCCGCGAUGCUG [Enquoninso] (Eterna round: R96, puzzle: Same State NG 2)”: the “apparent KD of MS2 coat protein” value (input ligand: FMN 200 uM) is 18.4 nM, the “apparent KD of MS2 coat protein” value under setting [1] was 62.2 nM and the “apparent KD of MS2 coat protein” value (input ligand: none) was 96.1 nM.
